Source: patent US20230212222A1 (ANYGEN CO., LTD., priority 2020, published 2023)
Numbered stars: 1 amine (or outer) side, 2 acyl side, 3 side chain; on linkers, the order of the positions; unused ones are H or OH. Square brackets hold non-standard residues; d marks the D form. Ends that are not written are not given here. * marks the point of attachment. DAMP‑2 = His whose imidazole is a 1,3-bis(2-cyclohexylethyl)-2,3-dihydro-1H-imidazol-4-yl group, O=C([C@H](CC1=CN(CCC2CCCCC2)CN1CCC1CCCCC1)N[*:1])[*:2]; DAMP‑3 = His whose imidazole is a 1,3-diphenethyl-2,3-dihydro-1H-imidazol-4-yl group, O=C([C@H](CC1=CN(CCc2ccccc2)CN1CCc1ccccc1)N[*:1])[*:2]; 1,2‑diphenyl = His whose imidazole is a 1,2-diphenyl-1H-imidazol-4-yl group, O=C([C@H](Cc1cn(-c2ccccc2)c(-c2ccccc2)n1)N[*:1])[*:2]; tbm = (2'-(1H-tetrazol-5-yl)-[1,1'-biphenyl]-4-yl)methyl on the histidine imidazole nitrogen, c1ccc(-c2nn[nH]n2)c(-c2ccc(C*)cc2)c1; 2‑(4-tert-butyl)phenyl = His carrying a 2-(4-tert-butylphenyl) group on the imidazole (imidazole C2), CC(C)(C)c1ccc(*)cc1; DAMP‑5 = His whose imidazole is a 3-(2-cyclohexylethyl)-2,3-dihydro-1H-imidazol-4-yl group; thiophene = His carrying a thiophen-2-yl group on the imidazole (imidazole C2), c1csc(*)c1; 1‑phenyl = His whose imidazole is a 1-phenyl-1H-imidazol-4-yl group, c1ccc(*)cc1; 2‑phenyl = His whose imidazole is a 2-phenyl-1H-imidazol-4-yl group; Biotin = O=C1N[C@H]2[C@H](CS[C@H]2CCCCC(=O)*)N1; dPhe(4-CF3) = N[C@H](Cc1ccc(C(F)(F)F)cc1)C(=O)O; 1‑(4-tert-butyl)phenyl = CC(C)(C)c1ccc(*)cc1; dPhe(4-Cl) = N[C@H](Cc1ccc(Cl)cc1)C(=O)O; dPhe(4-Me) = Cc1ccc(C[C@@H](N)C(=O)O)cc1; Trt = c1ccc(C(c2ccccc2)(c2ccccc2)*)cc1; CH2(1-naphthyl) = c1ccc2c(C*)cccc2c1; Benzhydryl = c1ccc(C(c2ccccc2)*)cc1; 2‑cyclohexylethyl = C1CCC(CC*)CC1; Tos = Cc1ccc(S(=O)(=O)*)cc1; Octanoyl = CCCCCCCC(=O)*

T1: GPR39 (G protein-coupled receptor 39) (Homo sapiens (Human), UniProt O43194 1-453)
T1 sequence: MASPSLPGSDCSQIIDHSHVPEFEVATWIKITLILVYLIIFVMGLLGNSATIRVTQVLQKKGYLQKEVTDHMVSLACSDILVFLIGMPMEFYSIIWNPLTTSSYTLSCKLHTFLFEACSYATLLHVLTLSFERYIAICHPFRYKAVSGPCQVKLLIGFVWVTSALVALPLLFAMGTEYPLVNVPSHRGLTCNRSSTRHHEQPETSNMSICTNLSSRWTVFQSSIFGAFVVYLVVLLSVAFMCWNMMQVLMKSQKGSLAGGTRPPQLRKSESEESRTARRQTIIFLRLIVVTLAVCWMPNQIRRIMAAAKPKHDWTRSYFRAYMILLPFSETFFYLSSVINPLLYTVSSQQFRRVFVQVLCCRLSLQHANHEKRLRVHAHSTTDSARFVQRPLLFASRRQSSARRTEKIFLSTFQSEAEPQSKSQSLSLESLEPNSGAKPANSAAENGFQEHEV

B1: HKFY-77 (peptide)
peptide: H(tbm)K(Octanoyl)FY
modifications: not fully specified (residue 3); printed as His(tbm)-Lys(caprylic)-d-Phe(4-CF3)-Tyr

What follows are binders tested against T1, GPR39 (G protein-coupled receptor 39) (assay: cell-based or functional assay).

**Q.** With [dH](Trt)K(Octanoyl)[dPhe(4-Cl)][dY] [HKFY-14] as the binder, how does the “EC50 (luciferase reporter)” value read?
**A.** The value was 0.02 µM.

**Q.** What about the “ECmax (-fold induction over basal)” value of the same binder?
**A.** The value was 20.9 -fold induction over basal.

**Q.** What does the source list for H(thiophene)K(Octanoyl)[dPhe(4-Me)]Y [HKFY-63]?
**A.** EC50 (luciferase reporter): 0.006 µM; ECmax (-fold induction over basal): 13.5 -fold induction over basal

**Q.** Which “EC50 (luciferase reporter)” value does the source give for His(Benzhydryl)-Lys(Octanoyl) [HKFY-79] here?
**A.** The value was 0.97 µM.

**Q.** What about the “ECmax (-fold induction over basal)” value of the same binder?
**A.** Its value is 11.2 -fold induction over basal.

**Q.** How did the “EC50 (luciferase reporter)” value turn out when H(Trt)K(Octanoyl)LY [HKFY-51] was run?
**A.** The value was 0.12 µM.

**Q.** What about the “ECmax (-fold induction over basal)” value of the same binder?
**A.** The value was 14.4 -fold induction over basal.

**Q.** What does the source list for B1?
**A.** EC50 (luciferase reporter): 0.007 µM; ECmax (-fold induction over basal): 11.6 -fold induction over basal

**Q.** Which “EC50 (luciferase reporter)” value does the source give for H(4‑methoxybenzhydryl)K(Octanoyl)[dPhe(4-Me)]Y [HKFY-64] here?
**A.** The value was 0.007 µM.

**Q.** And the “ECmax (-fold induction over basal)” value?
**A.** The value was 16 -fold induction over basal.

**Q.** How did the “EC50 (luciferase reporter)” value turn out when H(Benzhydryl)K(Octanoyl)[dPhe(4-Me)]Y-NH2 [HKFY-66] was run?
**A.** The value was 0.011 µM.

**Q.** And the “ECmax (-fold induction over basal)” value?
**A.** The value was 20.2 -fold induction over basal.

**Q.** For H(CH2(1-naphthyl))K(Octanoyl)FY [HKFY-10], which “EC50 (luciferase reporter)” value is on record?
**A.** The value was 46.5 µM.

**Q.** What about the “ECmax (-fold induction over basal)” value of the same binder?
**A.** The value was 14 -fold induction over basal.

**Q.** How did the “ECmax (-fold induction over basal)” value turn out when H(Trt)K(caproic)FYDQQARF [HKFY-56] was run?
**A.** The value was 14.9 -fold induction over basal.

**Q.** Which results are given for HK(Octanoyl)FY (not fully specified (residue 1)) [HKFY-9]?
**A.** EC50 (luciferase reporter): 42.7 µM; ECmax (-fold induction over basal): 21 -fold induction over basal

**Q.** Biotin-H(Benzhydryl)K(Octanoyl)[dPhe(4-Me)]Y [HKFY-72] was tested. Which “EC50 (luciferase reporter)” value did it give?
**A.** Its value is 0.011 µM.

**Q.** What about the “ECmax (-fold induction over basal)” value of the same binder?
**A.** The value was 10.4 -fold induction over basal.

**Q.** For H(Trt)K(Octanoyl)[dPhe(4-Cl)]Y [HKFY-13], which “EC50 (luciferase reporter)” value is on record?
**A.** Its value is 0.014 µM.

**Q.** And the “ECmax (-fold induction over basal)” value?
**A.** Its value is 25.7 -fold induction over basal.

**Q.** With H(Benzhydryl)K(Octanoyl)[dPhe(4-Me)][Tyr(3,5-nitro)] [HKFY-69] as the binder, how does the “EC50 (luciferase reporter)” value read?
**A.** Its value is 0.015 µM.

**Q.** And the “ECmax (-fold induction over basal)” value?
**A.** Its value is 12.2 -fold induction over basal.

**Q.** [dH](Benzhydryl)K(Octanoyl)[dPhe(4-Me)]Y [HKFY-62] was tested. Which “EC50 (luciferase reporter)” value did it give?
**A.** Its value is 0.83 µM.

**Q.** What about the “ECmax (-fold induction over basal)” value of the same binder?
**A.** The value was 28.1 -fold induction over basal.

**Q.** What does the source list for H(1‑(4-tert-butyl)phenyl)K(Octanoyl)[dPhe(4-Me)]Y [HKFY-61]?
**A.** EC50 (luciferase reporter): 0.02 µM; ECmax (-fold induction over basal): 9.88 -fold induction over basal

**Q.** What does the source list for H(1‑phenyl)K(Octanoyl)[dPhe(4-Me)]Y [HKFY-58]?
**A.** EC50 (luciferase reporter): 0.02 µM; ECmax (-fold induction over basal): 9.12 -fold induction over basal

**Q.** Which “EC50 (luciferase reporter)” value does the source give for Biotin-H(Trt)K(Octanoyl)FY [HKFY-2] here?
**A.** Its value is 0.14 µM.

**Q.** And the “ECmax (-fold induction over basal)” value?
**A.** Its value is 15 -fold induction over basal.

**Q.** For K(Octanoyl)H(Trt)FY [HKFY-55], which “EC50 (luciferase reporter)” value is on record?
**A.** Its value is 2.49 µM.

**Q.** What about the “ECmax (-fold induction over basal)” value of the same binder?
**A.** Its value is 16.8 -fold induction over basal.

**Q.** Which “EC50 (luciferase reporter)” value does the source give for H(Trt)K(Octanoyl)[dF]Y [HKFY-12] here?
**A.** The value was 0.035 µM.

**Q.** And the “ECmax (-fold induction over basal)” value?
**A.** Its value is 20.7 -fold induction over basal.

**Q.** What does the source list for H(1,2‑diphenyl)K(Octanoyl)[dPhe(4-Me)]Y [HKFY-59]?
**A.** EC50 (luciferase reporter): 0.55 µM; ECmax (-fold induction over basal): 6.76 -fold induction over basal

**Q.** Which results are given for H(Benzhydryl)K(Octanoyl)[dPhe(4-Me)][Tyr(3-chloro)] [HKFY-67]?
**A.** EC50 (luciferase reporter): 0.043 µM; ECmax (-fold induction over basal): 10.2 -fold induction over basal

**Q.** Which results are given for H(2‑phenyl)K(Octanoyl)[dPhe(4-Me)]Y [HKFY-57]?
**A.** EC50 (luciferase reporter): 0.26 µM; ECmax (-fold induction over basal): 8.5 -fold induction over basal

**Q.** For H(DAMP‑2)K(Octanoyl)FY [HKFY-8], which “EC50 (luciferase reporter)” value is on record?
**A.** The value was 33.6 µM.

**Q.** What about the “ECmax (-fold induction over basal)” value of the same binder?
**A.** The value was 17.3 -fold induction over basal.

**Q.** With H(Trt)GSK(Octanoyl)FY [HKFY-53] as the binder, how does the “EC50 (luciferase reporter)” value read?
**A.** The value was 0.34 µM.

**Q.** And the “ECmax (-fold induction over basal)” value?
**A.** The value was 8 -fold induction over basal.

**Q.** H(Trt)K(Octanoyl)[dPhe(4-Cl)][dY] [HKFY-15] was tested. Which “EC50 (luciferase reporter)” value did it give?
**A.** The value was 0.098 µM.

**Q.** And the “ECmax (-fold induction over basal)” value?
**A.** The value was 24.7 -fold induction over basal.

**Q.** What does the source list for H(2‑(4-tert-butyl)phenyl)K(Octanoyl)[dPhe(4-Me)]Y [HKFY-60]?
**A.** EC50 (luciferase reporter): 0.19 µM; ECmax (-fold induction over basal): 28.2 -fold induction over basal

**Q.** Which “EC50 (luciferase reporter)” value does the source give for H(Trt)K(Octanoyl)[dPhe(4-CF3)]Y [HKFY-76] here?
**A.** The value was 0.007 µM.

**Q.** What about the “ECmax (-fold induction over basal)” value of the same binder?
**A.** Its value is 14.2 -fold induction over basal.

**Q.** How did the “EC50 (luciferase reporter)” value turn out when H(Benzhydryl)K(Octanoyl)[dPhe(4-Me)][Tyr(3-amino)] [HKFY-70] was run?
**A.** The value was 0.02 µM.

**Q.** And the “ECmax (-fold induction over basal)” value?
**A.** The value was 10.1 -fold induction over basal.

**Q.** What does the source list for Lys(Octanoyl)-Phe-Tyr [HKFY-54]?
**A.** EC50 (luciferase reporter): 25.9 µM; ECmax (-fold induction over basal): 7.8 -fold induction over basal

**Q.** H(DAMP‑5)K(Octanoyl)FY [HKFY-7] was tested. Which “EC50 (luciferase reporter)” value did it give?
**A.** Its value is 1.56 µM.

**Q.** What about the “ECmax (-fold induction over basal)” value of the same binder?
**A.** Its value is 16 -fold induction over basal.

**Q.** Which “EC50 (luciferase reporter)” value does the source give for H(Trt)K(Octanoyl)FY [HKFY-1] here?
**A.** The value was 0.15 µM.

**Q.** And the “ECmax (-fold induction over basal)” value?
**A.** The value was 20.5 -fold induction over basal.

**Q.** With H(2‑cyclohexylethyl)K(Octanoyl)FY [HKFY-11] as the binder, how does the “EC50 (luciferase reporter)” value read?
**A.** The value was 57.8 µM.

**Q.** What about the “ECmax (-fold induction over basal)” value of the same binder?
**A.** Its value is 22 -fold induction over basal.

**Q.** H(DAMP‑3)K(Octanoyl)FY [HKFY-6] was tested. Which “EC50 (luciferase reporter)” value did it give?
**A.** Its value is 68.4 µM.

**Q.** What about the “ECmax (-fold induction over basal)” value of the same binder?
**A.** Its value is 15 -fold induction over basal.

**Q.** Which results are given for H(4‑hydroxybenzhydryl)K(Octanoyl)[dPhe(4-Me)]Y [HKFY-65]?
**A.** EC50 (luciferase reporter): 0.003 µM; ECmax (-fold induction over basal): 18.3 -fold induction over basal

**Q.** For H(Trt)FYDQQARF (not fully specified; printed as His(trt)-Phe-Tyr-Asp-Gln-Gln-Ala-Arg-Phe) [HKFY-52], which “EC50 (luciferase reporter)” value is on record?
**A.** Its value is 56.4 µM.

**Q.** What about the “ECmax (-fold induction over basal)” value of the same binder?
**A.** The value was 15.5 -fold induction over basal.

**Q.** With H(Benzhydryl)K(Octanoyl)[dPhe(4-Me)][Tyr(3-nitro)] [HKFY-68] as the binder, how does the “EC50 (luciferase reporter)” value read?
**A.** The value was 0.013 µM.

**Q.** What about the “ECmax (-fold induction over basal)” value of the same binder?
**A.** Its value is 10.8 -fold induction over basal.

**Q.** Which results are given for H(4‑methyltrityl)K(Octanoyl)FY [HKFY-5]?
**A.** EC50 (luciferase reporter): 1.84 µM; ECmax (-fold induction over basal): 16 -fold induction over basal

**Q.** For H(Trt)K(Octanoyl)FS [HKFY-50], which “EC50 (luciferase reporter)” value is on record?
**A.** Its value is 0.7 µM.

**Q.** And the “ECmax (-fold induction over basal)” value?
**A.** The value was 16.2 -fold induction over basal.

**Q.** For H(Tos)K(Octanoyl)[dPhe(4-Me)]Y [HKFY-75], which “EC50 (luciferase reporter)” value is on record?
**A.** Its value is 0.001 µM.

**Q.** What about the “ECmax (-fold induction over basal)” value of the same binder?
**A.** The value was 15.9 -fold induction over basal.
